Read-outs that look alike come from different tables or passages of the source.
Key:
Assay in all cases: SAXS
[1] = molecular target: AIF R529A mutant (Cβ-clasp) (UniProt O95831)
[2] = molecular target: AIF R529A mutant (Cβ-clasp) (UniProt O95831); remark: listed apart in the source
AIF H454A mutant = AIF H454A mutant (UniProt O95831)

Substance | stoichiometry N [1] | stoichiometry N [2] | stoichiometry N (AIF H454A mutant)
AIF R529A mutant (Cβ-clasp) (from UniProt O95831 55-613) (natural protein) | 2 | 2 | 
AIF H454A mutant (from UniProt O95831 55-613) (natural protein) |  |  | 2

Source: paper PMC10292688
